# Test results reported in patent US12012453B2, “Methods for treating late-stage small cell lung cancer by administering a human anti-PD-L1 antibody, an etoposide and a platinum-based therapeutic” (ASTRAZENECA AB, priority 2019, dated 2024).
# B1: Durvalumab: human IgG1 monoclonal antibody that selectively binds PD-L1 and blocks binding to PD-1 and CD80; VL SEQ ID NO: 1, VH SEQ ID NO: 2 (antibody, V domains shown)
# VH: EVQLVESGGGLVQPGGSLRLSCAASGFTFSRYWMSWVRQAPGKGLEWVANIKQDGSEKYYVDSVKGRFTISRDNAKNSLYLQMNSLRAEDTAVYYCAREGGWFGELAFDYWGQGTLVTVSS
# VL: EIVLTQSPGTLSLSPGERATLSCRASQRVSSSYLAWYQQKPGQAPRLLIYDASSRATGIPDRFSGSGSGTDFTLTISRLEPEDFAVYYCQQYGSLPWTFGQGTKVEIK
# How the values were obtained:
# human CTLA-4 = human CTLA-4 (Homo sapiens, UniProt P16410); settings: cited from earlier work
# Sequence of human CTLA-4 (P16410 36-223): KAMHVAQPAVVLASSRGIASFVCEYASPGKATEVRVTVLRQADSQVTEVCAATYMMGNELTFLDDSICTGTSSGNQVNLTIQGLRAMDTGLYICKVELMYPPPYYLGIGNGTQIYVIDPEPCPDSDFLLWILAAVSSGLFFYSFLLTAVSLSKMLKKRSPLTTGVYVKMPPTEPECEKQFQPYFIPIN
# Fc receptors = settings: cited from earlier work
# [1] = test system: natural killer (NK) ADCC activity; settings: cited from earlier work
# [2] = test system: patients with platinum-refractory disease; settings: second-line; cited from earlier work
# patients with ES-SCLC [3] = assay: CASPIAN phase 3 trial: overall survival and progression-free survival, intention-to-treat population; type: in vivo, human; settings: ITT
# Protocol: (§1) Eligible patients included adults with histologically or cytologically documented ES-SCLC and were treatment naïve. […] Patients with brain metastases were eligible provided they were asymptomatic or treated and stable off steroids and anticonvulsants for at least 1 month prior to study entry.
# Randomization was stratified according to planned platinum agent.
# Survival was assessed every 2 months following treatment discontinuation.
# The primary endpoint was OS (time from randomization to death from any cause). Secondary endpoints included progression-free survival (PFS; time from randomization to the date of objective disease progression or death from any cause in the absence of progression), objective response rate (ORR), OS at 18 and 24 months, PFS at 6 and 12 months, and safety. PFS and ORR were assessed according to RECIST v1.1.
# patients with ES-SCLC [4] = assay: CASPIAN phase 3 trial: tumor response per RECIST v1.1 (objective response, duration of response); type: in vivo, human; settings: for Odds ratio (95% CI) for ORR versus EP: logistic regression adjusted for platinum agent
# Protocol: as §1
# Randomization was stratified according to planned platinum agent. […]
# The primary endpoint was OS (time from randomization to death from any cause). […] PFS and ORR were assessed according to RECIST v1.1.
# patients with ES-SCLC [5] = settings: in vivo
# Protocol: (§2) Patients were randomized in a 1:1:1 ratio to receive durvalumab 1500 mg plus EP, durvalumab 1500 mg plus tremelimumab 75 mg plus EP, or EP (FIG. 1). Across all three study arms, chemotherapy consisted of etoposide 80-100 mg/m^2 (administered on days 1 to 3 of each cycle), with either carboplatin area under the curve 5-6 mg/mL/min or cisplatin 75-80 mg/m^2 (administered on day 1 of each cycle). Randomization was stratified according to planned platinum agent. Patients in the immunotherapy arms received up to 4 cycles of EP plus durvalumab every 3 weeks (q3w) followed by maintenance durvalumab 1500 mg every 4 weeks (q4w). Patients in the EP arm could receive an additional 2 cycles of EP (up to 6 cycles total) and prophylactic cranial irradiation (PCI). Patients continued treatment until Response Evaluation Criteria in Solid Tumor version 1.1 (RECIST v1.1)-defined disease progression, unacceptable toxicity, or other discontinuation criteria were met. Continuation of study treatment following disease progression was permitted if there was evidence of clinical benefit (FIG. 1). In-study crossover from the EP to the immunotherapy plus EP arms was not allowed.
# (§3) Tumor imaging was performed every 6 weeks for the first 12 weeks, and every 8 weeks thereafter, until confirmed objective disease progression. Survival was assessed every 2 months following treatment discontinuation.
# (§4) All patients who received at least one dose of study treatment were included in safety analyses.
# patients with ES-SCLC [6] = assay: CASPIAN phase 3 trial: treatment-related adverse events (safety population)
# Protocol: as §2, §3, §4
# [7] = test system: PD-L1-mediated suppression of human T-cell activation; settings: in vitro; cited from earlier work
# xenograft model = settings: cited from earlier work
# [8] = final analysis, Kaplan-Meier, listed as D+EP
molecule,measurement,setting,value
"Tremelimumab: antibody that selectively binds a CTLA-4 polypeptide, as disclosed in U.S. Pat. No. 8,491,895",cross-reactivity to related human proteins,human CTLA-4,no cross-reactivity to related human proteins
same,specific binding to Fc receptors,Fc receptors,minimal specific binding to Fc receptors
same,induction of NK ADCC activity,[1],does not induce natural killer (NK) antibody-dependent cell-mediated cytotoxicity (ADCC) activity
CC[C@@]1(O)C(=O)OCc2c1cc1n(c2=O)Cc2cc3c(CN(C)C)c(O)ccc3nc2-1 [topotecan],one-year survival rate,[2],9%
same,response rates,[2],5%
Durvalumab + EP,patients who had died,patients with ES-SCLC [3]; final analysis data cutoff,78%
same,patients who had disease progression or died,patients with ES-SCLC [3]; final data cutoff,87%
same,12-month PFS rate,patients with ES-SCLC [3]; final/updated analysis,17.9%
same,24-month PFS rate,patients with ES-SCLC [3]; final/updated analysis,11.0%
same,HR for PFS versus EP,patients with ES-SCLC [3]; final/updated analysis,0.80
same,Median OS,patients with ES-SCLC [3]; final/updated analysis,12.9 months
same,Median PFS,patients with ES-SCLC [3]; final/updated analysis,5.1 months
same,HR for OS versus EP,"patients with ES-SCLC [3]; final/updated analysis, Cox model stratified by platinum agent",0.75
same,24-month OS rate,"patients with ES-SCLC [3]; final/updated analysis, Kaplan-Meier",22.2%
same,Best objective response: Complete response,patients with ES-SCLC [4]; final analysis,7 (3) n (%)
same,Best objective response: Not evaluable,patients with ES-SCLC [4]; final analysis,3 (1) n (%)
same,Best objective response: Partial response,patients with ES-SCLC [4]; final analysis,175 (65) n (%)
same,Best objective response: Progressive disease,patients with ES-SCLC [4]; final analysis,32 (12) n (%)
same,Best objective response: Stable disease for at least 6 weeks,patients with ES-SCLC [4]; final analysis,20 (7) n (%)
same,Best objective response: Unconfirmed response,patients with ES-SCLC [4]; final analysis,31 (12) n (%)
same,"Best reduction from baseline in target lesion size, Mean (SD)",patients with ES-SCLC [4]; final analysis,−57.0 (24.59) %
same,"Best reduction from baseline in target lesion size, Median (IQR)",patients with ES-SCLC [4]; final analysis,"−60.4 (−72.9, −44.3) %"
same,"Odds ratio vs EP (95% CI), confirmed objective response",patients with ES-SCLC [4]; final analysis,1.53 (1.08-2.18)
same,"Odds ratio vs EP (95% CI), unconfirmed objective response",patients with ES-SCLC [4]; final analysis,1.61 (1.09-2.40)
same,Remaining in response at 6 months (95% CI),"patients with ES-SCLC [4]; final analysis, Kaplan-Meier",39.3 (32.2-46.3) %
same,Remaining in response at 12 months (95% CI),"patients with ES-SCLC [4]; final analysis, Kaplan-Meier",23.2 (17.3-29.7) %
same,Remaining in response at 24 months (95% CI),"patients with ES-SCLC [4]; final analysis, Kaplan-Meier",13.5 (8.7-19.3) %
same,Remaining in response at 12 months (95% CI),patients with ES-SCLC [4]; [8],23.2%
same,Remaining in response at 24 months (95% CI),patients with ES-SCLC [4]; [8],13.5%
same,Median (95% CI) duration of response,"patients with ES-SCLC [4]; final analysis, confirmed responders, Kaplan-Meier",5.1 (4.9-5.3) months
same,"Best reduction from baseline in target lesion size, Median (IQR)","patients with ES-SCLC [4]; final analysis, listed as D+EP",−60.4%
same,"Odds ratio vs EP (95% CI), confirmed objective response","patients with ES-SCLC [4]; final analysis, listed as D+EP",1.53
same,confirmed objective response,"patients with ES-SCLC [4]; final analysis, post hoc",68%
same,Best objective response: Not evaluable,patients with ES-SCLC [4]; interim analysis,3 (1.1) n (%)
same,Best objective response: Progressive disease,patients with ES-SCLC [4]; interim analysis,32 (11.9) n (%)
same,Best objective response: Stable disease ≥6 weeks,patients with ES-SCLC [4]; interim analysis,20 (7.5) n (%)
same,Remaining in response at 6 months,patients with ES-SCLC [4]; interim analysis,39.3%
same,Remaining in response at 12 months,patients with ES-SCLC [4]; interim analysis,22.7%
same,confirmed ORR,patients with ES-SCLC [4]; interim analysis,67.9%
same,confirmed complete response,patients with ES-SCLC [4]; interim analysis,2.2%
same,ORR (confirmed),"patients with ES-SCLC [4]; interim analysis, RECIST v1.1",182 (67.9) n (%)
same,Best objective response: Complete response,"patients with ES-SCLC [4]; interim analysis, confirmed",6 (2.2) n (%)
same,Best objective response: Partial response,"patients with ES-SCLC [4]; interim analysis, confirmed",176 (65.7) n (%)
same,Median DoR (95% CI),"patients with ES-SCLC [4]; interim analysis, confirmed responders",5.1 (4.9-5.3) months
same,Median DoR (95% CI),"patients with ES-SCLC [4]; interim analysis, confirmed responders, listed as durvalumab plus EP",5.1 months
same,Odds ratio (95% CI) for ORR versus EP,patients with ES-SCLC [4]; interim analysis,1.56 (1.095-2.218)
same,Odds ratio (95% CI) for ORR versus EP,"patients with ES-SCLC [4]; interim analysis, listed as durvalumab plus EP",1.56
same,"unconfirmed and confirmed objective response rates, amount higher versus EP",patients with ES-SCLC [4]; updated analysis,approximately 10%
same,Any treatment-related event leading to death,patients with ES-SCLC [5],6 (2) n (%)
same,"Alopecia, treatment-related",patients with ES-SCLC [6]; Any grade,75 (28) n (%)
same,"Anaemia, treatment-related",patients with ES-SCLC [6]; Any grade,85 (32) n (%)
same,Any treatment-related event,patients with ES-SCLC [6]; Any grade,237 (89) n (%)
same,Any treatment-related event leading to discontinuation,patients with ES-SCLC [6]; Any grade,16 (6) n (%)
same,Any treatment-related serious event,patients with ES-SCLC [6]; Any grade,35 (13) n (%)
same,"Asthenia, treatment-related",patients with ES-SCLC [6]; Any grade,27 (10) n (%)
same,"Constipation, treatment-related",patients with ES-SCLC [6]; Any grade,23 (9) n (%)
same,"Decreased appetite, treatment-related",patients with ES-SCLC [6]; Any grade,33 (12) n (%)
same,"Diarrhoea, treatment-related",patients with ES-SCLC [6]; Any grade,17 (6) n (%)
same,"Fatigue, treatment-related",patients with ES-SCLC [6]; Any grade,30 (11) n (%)
same,"Febrile neutropenia, treatment-related",patients with ES-SCLC [6]; Any grade,15 (6) n (%)
same,"Hyperthyroidism, treatment-related",patients with ES-SCLC [6]; Any grade,22 (8) n (%)
same,"Hypothyroidism, treatment-related",patients with ES-SCLC [6]; Any grade,23 (9) n (%)
same,"Leucopenia, treatment-related",patients with ES-SCLC [6]; Any grade,36 (14) n (%)
same,"Lipase increased, treatment-related",patients with ES-SCLC [6]; Any grade,10 (4) n (%)
same,"Nausea, treatment-related",patients with ES-SCLC [6]; Any grade,74 (28) n (%)
same,"Neutropenia, treatment-related",patients with ES-SCLC [6]; Any grade,104 (39) n (%)
same,"Neutrophil count decreased, treatment-related",patients with ES-SCLC [6]; Any grade,24 (9) n (%)
same,"Paraesthesia, treatment-related",patients with ES-SCLC [6]; Any grade,14 (5) n (%)
same,"Platelet count decreased, treatment-related",patients with ES-SCLC [6]; Any grade,14 (5) n (%)
same,"Pruritus, treatment-related",patients with ES-SCLC [6]; Any grade,11 (4) n (%)
same,"Rash, treatment-related",patients with ES-SCLC [6]; Any grade,10 (4) n (%)
same,"Thrombocytopenia, treatment-related",patients with ES-SCLC [6]; Any grade,37 (14) n (%)
same,"Vomiting, treatment-related",patients with ES-SCLC [6]; Any grade,32 (12) n (%)
same,"White blood cell count decreased, treatment-related",patients with ES-SCLC [6]; Any grade,12 (5) n (%)
same,"Alopecia, treatment-related",patients with ES-SCLC [6]; Grade 3 or 4,3 (1) n (%)
same,"Anaemia, treatment-related",patients with ES-SCLC [6]; Grade 3 or 4,21 (8) n (%)
same,Any treatment-related event,patients with ES-SCLC [6]; Grade 3 or 4,121 (46) n (%)
same,Any treatment-related event leading to discontinuation,patients with ES-SCLC [6]; Grade 3 or 4,3 (1) n (%)
same,Any treatment-related serious event,patients with ES-SCLC [6]; Grade 3 or 4,25 (9) n (%)
same,"Asthenia, treatment-related",patients with ES-SCLC [6]; Grade 3 or 4,2 (1) n (%)
same,"Constipation, treatment-related",patients with ES-SCLC [6]; Grade 3 or 4,0 n (%)
same,"Decreased appetite, treatment-related",patients with ES-SCLC [6]; Grade 3 or 4,1 (<1) n (%)
same,"Diarrhoea, treatment-related",patients with ES-SCLC [6]; Grade 3 or 4,2 (1) n (%)
same,"Fatigue, treatment-related",patients with ES-SCLC [6]; Grade 3 or 4,2 (1) n (%)
same,"Febrile neutropenia, treatment-related",patients with ES-SCLC [6]; Grade 3 or 4,13 (5) n (%)
same,"Hyperthyroidism, treatment-related",patients with ES-SCLC [6]; Grade 3 or 4,0 n (%)
same,"Hypothyroidism, treatment-related",patients with ES-SCLC [6]; Grade 3 or 4,0 n (%)
same,"Leucopenia, treatment-related",patients with ES-SCLC [6]; Grade 3 or 4,15 (6) n (%)
same,"Lipase increased, treatment-related",patients with ES-SCLC [6]; Grade 3 or 4,8 (3) n (%)
same,"Nausea, treatment-related",patients with ES-SCLC [6]; Grade 3 or 4,0 n (%)
same,"Neutropenia, treatment-related",patients with ES-SCLC [6]; Grade 3 or 4,61 (23) n (%)
same,"Neutrophil count decreased, treatment-related",patients with ES-SCLC [6]; Grade 3 or 4,16 (6) n (%)
same,"Paraesthesia, treatment-related",patients with ES-SCLC [6]; Grade 3 or 4,0 n (%)
same,"Platelet count decreased, treatment-related",patients with ES-SCLC [6]; Grade 3 or 4,4 (2) n (%)
same,"Pruritus, treatment-related",patients with ES-SCLC [6]; Grade 3 or 4,0 n (%)
same,"Rash, treatment-related",patients with ES-SCLC [6]; Grade 3 or 4,0 n (%)
same,"Thrombocytopenia, treatment-related",patients with ES-SCLC [6]; Grade 3 or 4,14 (5) n (%)
same,"Vomiting, treatment-related",patients with ES-SCLC [6]; Grade 3 or 4,0 n (%)
same,"White blood cell count decreased, treatment-related",patients with ES-SCLC [6]; Grade 3 or 4,4 (2) n (%)
B1,relief of PD-L1-mediated suppression of human T-cell activation,[7],can relieve PD-L1-mediated suppression of human T-cell activation in vitro
same,tumor growth inhibition,xenograft model,inhibits tumor growth in a xenograft model via a T-cell dependent mechanism
